Assay results taken from patent publication US20240141059A1 (Bristol-Myers Squibb, published 2024).
Changes are numbered by the printed parent chain.

Experiments:
[1] = target: T1, human GITR on cells (human, UniProt Q9Y5U5 26-241); assay: cell-based or functional assay
T1 sequence (looked up): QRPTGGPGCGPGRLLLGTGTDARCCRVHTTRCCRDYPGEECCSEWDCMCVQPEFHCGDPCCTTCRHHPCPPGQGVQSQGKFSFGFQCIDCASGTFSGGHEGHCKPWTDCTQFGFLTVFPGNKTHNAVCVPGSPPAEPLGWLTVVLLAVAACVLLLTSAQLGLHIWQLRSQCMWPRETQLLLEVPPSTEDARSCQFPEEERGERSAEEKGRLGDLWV

[2] = target: T2, hCD32b (human, UniProt P31994 43-217); assay: SPR, FcgR analyte on protein A captured dAb-Fc
T2 construct: also called FcgRIIb
T2 sequence (looked up): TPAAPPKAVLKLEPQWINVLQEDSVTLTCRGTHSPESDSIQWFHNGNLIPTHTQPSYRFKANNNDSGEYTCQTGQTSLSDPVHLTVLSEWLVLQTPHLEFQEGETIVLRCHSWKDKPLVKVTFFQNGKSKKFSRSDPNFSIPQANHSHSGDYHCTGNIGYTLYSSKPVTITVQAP

[3] = target: T3, hCD32a-R131 (human, UniProt P12318 34-217); assay: SPR, FcgR analyte on protein A captured dAb-Fc
T3 construct: also called FcgRIIa-R131
T3 sequence (looked up): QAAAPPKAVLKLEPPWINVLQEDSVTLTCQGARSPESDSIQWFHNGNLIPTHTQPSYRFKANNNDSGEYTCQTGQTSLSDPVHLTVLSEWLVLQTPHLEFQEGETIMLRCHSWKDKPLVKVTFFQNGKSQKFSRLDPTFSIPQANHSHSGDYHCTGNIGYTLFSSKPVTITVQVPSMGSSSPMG

[4] = target: T4, hCD16b-NA2 (human, UniProt O75015 17-200, limits assumed); assay: SPR, FcgR analyte on protein A captured dAb-Fc
T4 construct: also called FcgRIIIb-NA2

[5] = target: T5, hCD32a-H131 (human, UniProt P12318 34-217); assay: SPR, FcgR analyte on protein A captured dAb-Fc
T5 construct: also called FcgRIIa-H131
T5 sequence (looked up): T3 sequence (looked up) with R134H

[6] = target: T6, hCD16a-V158 (human, UniProt P08637 17-208, limits assumed); assay: SPR, FcgR analyte on protein A captured dAb-Fc
T6 construct: also called FcgRIIIa-V158
T6 sequence (P08637 17-208 F176V limits assumed): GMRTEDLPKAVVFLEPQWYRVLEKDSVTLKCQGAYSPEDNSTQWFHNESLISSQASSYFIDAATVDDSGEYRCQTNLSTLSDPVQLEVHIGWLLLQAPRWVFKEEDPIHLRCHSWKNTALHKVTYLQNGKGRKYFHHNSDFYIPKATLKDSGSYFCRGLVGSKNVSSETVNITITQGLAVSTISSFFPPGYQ

T4 sequence (O75015 17-200 N65S limits assumed): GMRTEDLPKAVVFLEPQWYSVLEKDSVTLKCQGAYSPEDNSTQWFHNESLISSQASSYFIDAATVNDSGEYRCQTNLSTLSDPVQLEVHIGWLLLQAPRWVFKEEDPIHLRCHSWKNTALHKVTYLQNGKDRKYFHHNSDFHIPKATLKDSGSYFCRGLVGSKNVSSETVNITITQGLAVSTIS

B1: anti-GITR-IgG2 (antibody)
heavy: QVQLVESGGGVVQPGRSLRLSCAASGFTFSSYGMHWVRQAPGKGLEWVAVIWYEGSNKYYADSVKGRFTISRDNSKNTLYLQMNSLRAEDTAVYYCARGGSMVRGDYYYGMDVWGQGTTVTVSSASTKGPSVFPLAPCSRSTSESTAALGCLVKDYFPEPVTVSWNSGALTSGVHTFPAVLQSSGLYSLSSVVTVPSSNFGTQTYTCNVDHKPSNTKVDKTVERKCCVECPPCPAPPVAGPSVFLFPPKPKDTLMISRTPEVTCVVVDVSHEDPEVQFNWYVDGVEVHNAKTKPREEQFNSTFRVVSVLTVVHQDWLNGKEYKCKVSNKGLPAPIEKTISKTKGQPREPQVYTLPPSREEMTKNQVSLTCLVKGFYPSDIAVEWESNGQPENNYKTTPPMLDSDGSFFLYSKLTVDKSRWQQGNVFSCSVMHEALHNHYTQKSLSLSPGK
light: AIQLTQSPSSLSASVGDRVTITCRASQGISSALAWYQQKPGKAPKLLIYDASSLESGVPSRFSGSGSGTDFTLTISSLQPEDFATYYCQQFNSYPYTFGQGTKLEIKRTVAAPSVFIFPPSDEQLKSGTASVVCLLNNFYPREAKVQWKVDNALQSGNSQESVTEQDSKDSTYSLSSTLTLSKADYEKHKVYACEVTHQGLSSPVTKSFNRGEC
NFKB signaling EC50 [1]: ~0.01 µM

B2: 3h56-269-IgG1.1f (Fc fusion)
chain: EVQLLESGGGLVQPGGSLRLSCAASGFTFRDYEMWWVRQAPGKGLERVSAINPQGTRTYYADSVKGRFTISRDNSKNTLYLQMNSLRAEDTAVYYCAKLPFRFSDRGQGTLVTVSSASTEPKSCDKTHTCPPCPAPEAEGAPSVFLFPPKPKDTLMISRTPEVTCVVVDVSHEDPEVKFNWYVDGVEVHNAKTKPREEQYNSTYRVVSVLTVLHQDWLNGKEYKCKVSNKALPSSIEKTISKAKGQPREPQVYTLPPSREEMTKNQVSLTCLVKGFYPSDIAVEWESNGQPENNYKTTPPVLDSDGSFFLYSKLTVDKSRWQQGNVFSCSVMHEALHNHYTQKSLSLSPGK
Kd [2]: > 5 µM | Kd [3]: > 5 µM | Kd [4]: > 5 µM | Kd [5]: > 5 µM | Kd [6]: > 5 µM
